Assay results from article PMC4609988 (Scientific Reports, 2015).
Values belong to the binder of their own block, whether it stands above or below them.

Key:
Fc-Ang1 = target: T1, Fc-Ang1 (human); experiment: non-reducing SDS-PAGE; proteins taken from the media of transfected HEK293 cells with streptactin sepharose, SDS-PAGE under non-reduced (NR) and reduced (R) conditions, immunoblot with anti-Ang1 antibody; disulfide-linked oligomers; details: both partners purified
T1 chain: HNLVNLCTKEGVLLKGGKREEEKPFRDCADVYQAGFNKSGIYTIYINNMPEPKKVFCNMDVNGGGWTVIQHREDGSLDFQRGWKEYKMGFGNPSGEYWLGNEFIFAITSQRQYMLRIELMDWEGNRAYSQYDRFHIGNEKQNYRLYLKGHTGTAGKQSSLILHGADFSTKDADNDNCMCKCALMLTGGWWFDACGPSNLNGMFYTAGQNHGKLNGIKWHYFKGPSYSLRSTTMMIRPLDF

COMP-Ang1 = target: T2, COMP-Ang1 ( | human); experiment: as above; details: both partners purified
T2 chain: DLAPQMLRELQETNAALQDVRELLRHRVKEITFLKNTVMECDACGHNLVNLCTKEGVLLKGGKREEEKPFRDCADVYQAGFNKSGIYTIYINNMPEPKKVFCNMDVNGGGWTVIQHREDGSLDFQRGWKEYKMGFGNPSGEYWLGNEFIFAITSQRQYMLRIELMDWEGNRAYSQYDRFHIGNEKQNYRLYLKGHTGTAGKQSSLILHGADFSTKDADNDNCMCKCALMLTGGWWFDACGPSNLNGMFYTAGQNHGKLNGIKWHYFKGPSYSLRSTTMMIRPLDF

[1] = target: the molecule itself; experiment: as above
CMP-Ang1-2 = target: T3, CMP-Ang1-2 (human); experiment: negative-stain transmission electron microscopy; purified proteins on carbon-coated copper grids, stained with 0.75% uranyl formate, 120 kV; details: both partners purified
T3 chain: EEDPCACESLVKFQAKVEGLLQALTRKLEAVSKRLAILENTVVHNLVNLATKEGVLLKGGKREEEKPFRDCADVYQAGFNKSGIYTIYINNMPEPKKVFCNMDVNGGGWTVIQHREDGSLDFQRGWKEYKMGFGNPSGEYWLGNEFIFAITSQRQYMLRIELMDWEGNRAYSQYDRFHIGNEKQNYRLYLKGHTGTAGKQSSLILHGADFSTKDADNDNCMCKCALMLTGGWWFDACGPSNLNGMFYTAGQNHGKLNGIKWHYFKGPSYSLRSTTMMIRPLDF

GCN-Ang1 = GCN-Ang1 ( | human); experiment: non-reducing SDS-PAGE; proteins taken from the media of transfected HEK293 cells with streptactin sepharose, SDS-PAGE under non-reduced (NR) and reduced (R) conditions, immunoblot with anti-Ang1 antibody; disulfide-linked oligomers; details: both partners purified

stoichiometry N (Fc-Ang1): 2
B1: Fc-Ang1 (Fc fusion)
chain: HNLVNLCTKEGVLLKGGKREEEKPFRDCADVYQAGFNKSGIYTIYINNMPEPKKVFCNMDVNGGGWTVIQHREDGSLDFQRGWKEYKMGFGNPSGEYWLGNEFIFAITSQRQYMLRIELMDWEGNRAYSQYDRFHIGNEKQNYRLYLKGHTGTAGKQSSLILHGADFSTKDADNDNCMCKCALMLTGGWWFDACGPSNLNGMFYTAGQNHGKLNGIKWHYFKGPSYSLRSTTMMIRPLDF
modifications: dimerized through N-terminal human IgG1 Fc; N-glycan at Ang1 Asn295 / dimerized through N-terminal human IgG1 Fc; N-glycan at Ang1 Asn295

stoichiometry N (COMP-Ang1): 5
B2: COMP-Ang1 (ligand)
chain: DLAPQMLRELQETNAALQDVRELLRHRVKEITFLKNTVMECDACGHNLVNLCTKEGVLLKGGKREEEKPFRDCADVYQAGFNKSGIYTIYINNMPEPKKVFCNMDVNGGGWTVIQHREDGSLDFQRGWKEYKMGFGNPSGEYWLGNEFIFAITSQRQYMLRIELMDWEGNRAYSQYDRFHIGNEKQNYRLYLKGHTGTAGKQSSLILHGADFSTKDADNDNCMCKCALMLTGGWWFDACGPSNLNGMFYTAGQNHGKLNGIKWHYFKGPSYSLRSTTMMIRPLDF
modifications: inter-chain disulfides; N-glycan at Ang1 Asn295 (construct Asn109) / inter-chain disulfides; N-glycan at Ang1 Asn295 (construct Asn109)

B3: CMP-Ang1-3 (dimeric CMP-Ang1), produced in HEK293 cells (ligand)
chain: EEDPAACESLVKFQAKVEGLLQALTRKLEAVSKRLAILENTVVHNLVNLATKEGVLLKGGKREEEKPFRDCADVYQAGFNKSGIYTIYINNMPEPKKVFCNMDVNGGGWTVIQHREDGSLDFQRGWKEYKMGFGNPSGEYWLGNEFIFAITSQRQYMLRIELMDWEGNRAYSQYDRFHIGNEKQNYRLYLKGHTGTAGKQSSLILHGADFSTKDADNDNCMCKCALMLTGGWWFDACGPSNLNGMFYTAGQNHGKLNGIKWHYFKGPSYSLRSTTMMIRPLDF
modifications: N-glycan at asparagine 106 (complex tri- (~57%) or tetra- (~25%) antennary type glycans with one or two fucose residues)
stoichiometry N [1]: 2

stoichiometry N (CMP-Ang1-2): 3
B4: CMP-Ang1-2 (ligand)
chain: EEDPCACESLVKFQAKVEGLLQALTRKLEAVSKRLAILENTVVHNLVNLATKEGVLLKGGKREEEKPFRDCADVYQAGFNKSGIYTIYINNMPEPKKVFCNMDVNGGGWTVIQHREDGSLDFQRGWKEYKMGFGNPSGEYWLGNEFIFAITSQRQYMLRIELMDWEGNRAYSQYDRFHIGNEKQNYRLYLKGHTGTAGKQSSLILHGADFSTKDADNDNCMCKCALMLTGGWWFDACGPSNLNGMFYTAGQNHGKLNGIKWHYFKGPSYSLRSTTMMIRPLDF
modifications: inter-chain disulfides; N-glycan at Ang1 Asn295 (construct Asn106) / inter-chain disulfides; N-glycan at Ang1 Asn295 (construct Asn106)

stoichiometry N (GCN-Ang1): 2
B5: GCN-Ang1 (ligand)
chain: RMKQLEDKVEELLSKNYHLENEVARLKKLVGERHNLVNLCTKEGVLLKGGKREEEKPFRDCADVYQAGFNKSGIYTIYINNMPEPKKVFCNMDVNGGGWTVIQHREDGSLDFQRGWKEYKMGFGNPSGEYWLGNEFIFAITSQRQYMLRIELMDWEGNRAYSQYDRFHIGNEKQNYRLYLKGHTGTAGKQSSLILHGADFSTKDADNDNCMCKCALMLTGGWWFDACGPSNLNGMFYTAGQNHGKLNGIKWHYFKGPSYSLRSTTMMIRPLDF
modifications: N-glycan at Ang1 Asn295 / N-glycan at Ang1 Asn295
